Assay results published in the supplement of paper PMC9170038.

Tested on: K4 kissing-loop RNA reporter
Test: apparent KD of K4 kissing-loop reporter; higher = weaker reporter binding
Conditions: Eterna round: R107
Experimental: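 RNA-MaP round R107: designed RNA switches with theophylline, tryptophan, arginine or FMN aptamers are transcribed on-chip within common flanks. They are titrated with a labelled K4 kissing-loop RNA reporter in RNA-MaP buffer (100 mM Tris pH 7.5, 80 mM KCl, 4 mM MgCl2), without ligand or with the indicated ligand. Median apparent KD per design.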

[1] = input ligand: theophylline 20 uM
[2] = input ligand: tryptophan 2.4 mM
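Note: bound reporter read as fluorescence of individual clusters on recovered sequencing chips by microscopy, with normalized cluster intensities fitted with a binding model.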

| Sequence | apparent KD of K4 kissing-loop reporter (input ligand: FMN 200 uM) [nM] | apparent KD of K4 kissing-loop reporter (input ligand: arginine 13.2 mM) [nM] | apparent KD of K4 kissing-loop reporter (input ligand: none) [nM] | apparent KD of K4 kissing-loop reporter [1] [nM] | apparent KD of K4 kissing-loop reporter [2] [nM] |
| --- | --- | --- | --- | --- | --- |
| AGUUCUUGCCGAAGGAGCGAGGCAGAGUGAUGUUCUGCAGAGGUCGAAAGACCUCAACUGCCUCAGGUAGGUCGCGGCAUGAACA [Omei KL Arginine B Exc A v6] | 291 | 298 | 563 | 469 | 476 |
| AUAAACUUGCAGUGAUGUUGCAAGUAAGACUAGGAUAUCAGGAAACUGAGAAGGAGUCAUCUCCUUCAACUGCAAGAAUGAAGGA [[K1]-[K2]-[F1]-[F2]-[F]'-[K]'-[F]''_Design4] | 147 | 108 | 129 | 104 | 133 |
| AUAGGAGUGAUGUUCCUUAGUCUCUCCGAUACCAGUAUGGAAACAUACCCUUGGCAGCGGGAGACCGCAGAUUAGGAAACUAGUC [Theophylline A K4 5] | 178 | 179 | 185 | 205 | 172 |
| AUAGGCUAGCGAAACGCUAGCCUAACAGAUACCAGUCGCGAAAGCGACCCUUGGCAGCUGCUGAGUGAUGUUCAGGUGAAUGAAU | 442 | 285 | 418 | 403 | 374 |
| AUAUAUAACUGAAGGAGCGAGGCCAAAUAUAUAUAGUGAUGUUAUAUAAAGGCACAUAGGCCUCAGGUAGGUCGCAGAAUAAUAU [AstrosExyArGB#1] | 284 | 274 | 277 | 270 | 281 |
| AUCGUUGUCUGAGGAUAUCGGUUAUCUGUAGUGAUGUUACAGUAUAUUGAUAUUAAAGAUUCUAUUCGAGAAGGCAGACAACGUA [JR_Nu3_ExcFMNB_Sub023] | 75.5 | 62.7 | 67.2 | 57.9 | 61.9 |
| AUGAGGAGCAGUGAUCCUACUCCAUGGGAAGGAGCGUAGGAUACUACAGGUAGGUCGCCCAGUGAUGUUGGGCGCGUGCUCUUGG [Isatquesra] | 140 | 130 | 135 | 148 | 150 |
| AUGCAGUGAUGUUGCUUUGUAUAAACAGAUACCAGUGAAUUUUAACACCCUUGGCAGCUGAUAGAUUCUUAAUUCUAUUAUAUAA [JR_SSTheophyA_Sub020] | 164 | 189 | 165 | 197 | 140 |
| AUGCAUGAAAGUGAUGUUUUCAGUAAUGGAAAGGAUAUGCGCUGGUGCAGAAGGUUCUAAAGUGCAUCCAACAACUGGGUAGGCC [theeternabot_sameState_KL_FMN_A_36] | 218 | 316 | 322 | 273 | 310 |
| AUGCGACGUGCGGCCGCCACUCGGAUGCGAGUGAUGUUCGCGGGCCGGCCGCAAGGCCGGCAUUCGAGGACCGGGCAUCGGUGUA [#2 Same State - Tryptophan B Attempt #1 (HarryS)] | 420 | 496 | 546 | 493 | 116 |
| AUGCUUAUAAUAACACUAUAUACAACUGAAGGAGCGACAAUAAAGUCAGGUAGGUCGCAGAAUAAAUGAGUGAUGUUCAUUUUUA [JR_ExcArginiA_Sub010] | 113 | 138 | 113 | 144 | 84.2 |
| AUUAAUAUCACGGCCGCCACUGAAUAUUGUUUUUAUAUUUAGAAUAAUUGCCAGUGAUGUUGGAUCAGGACCGGGUGAGUUUAUA [JR_SSTryptoB_Sub007] | 544 | 362 | 461 | 377 | 421 |
| AUUAAUUUCAGAGGAUAUCGUUAUUUUUUUAAGUAUAAUCUAUUUUGCAGUGAUGUUGCUAUUAAUCGAGAAGGCUGAUUUAUAA [JR_SSFMNB_Sub020] | 109 | 140 | 75.3 | 136 | 72.2 |
| AUUCGUUUAUGUGAUACCAGACUUUGCAGUGAUGUUGCAUUUAUUUUUGAAUUUUAGUUUGUCCCUUGGCAGCACUAUUUAUUUA [JR_SSTheophyB_Sub005] | 44.1 | 87.8 | 50.5 | 83.1 | 42.3 |
| AUUCUAUGGAGUGAUGUUCCUGUGAUGUCACGAGGACCGGUACGGCCGCCACUCGAUGUAUUGGUUUUUGAAAGAAACAACUGCA [Same State-Tryptophan A] | 566 | 701 | 842 | 773 | 279 |
| AUUUAAUUAACUGAUACCAGACUUUUUGUUUUGAUAAUUACUAGUGAUGUUAGUGUUUCUGUCCCUUGGCAGCAGAAUCUACUUA [JR_ExcTheophyB_Sub018] | 145 | 280 | 179 | 347 | 137 |

| Sequence | apparent KD of K4 kissing-loop reporter (input ligand: FMN 200 uM) [nM] | apparent KD of K4 kissing-loop reporter (input ligand: arginine 13.2 mM) [nM] | apparent KD of K4 kissing-loop reporter (input ligand: none) [nM] | apparent KD of K4 kissing-loop reporter [1] [nM] | apparent KD of K4 kissing-loop reporter [2] [nM] |
| --- | --- | --- | --- | --- | --- |
| AUUUAUGUAUCAGGAUAUUAGUGAUGUUUGUUUUUGUUAGUGAUGUUGAUAUUUGUUUUAUGUAUUUAAGAAGGGAUUGAGAUGU [wwewmullin] | 58.2 | 18.5 | 34.7 | 24.2 | 45.2 |
| AUUUGUUUAUGUGAUACCAGACUAAGCAGUGAUGUUGCUUUUAUUUUUGAAUUUUAAAUAGUCCCUUGGCAGCACUAUGUAUUUA [JR_SSTheophyB_Sub010] | 60.6 | 93.1 | 70.2 | 99.2 | 60.3 |
| AUUUUGUUGUCAGGAUAUUAGUAUGGUUUUGGUUUGUUAGUGAUGUUGAUGGUUUGUUUAUGUAUUUAAGAAGGGAUUUAGCGGU [swwsgumullin] | 693 | 463 | 534 | 573 | 424 |
| AUUUUUUUAUCAGGAUAUUAGUGUUGGUUUGUUUUGUUAGUGAUGUUGAUAUUUGUUUUAUGUAUUUAAGAAGGGAUUGUGAUGU [huupullin] | 473 | 371 | 409 | 381 | 264 |
| CAAAUGUUGUCAGGAUAUGAGCGCAGUGAUGUUGCGGUUGUAUUUAUGACUGGAGCAGCGUAAGCCUCAGAAGGGACAAGUUGCC [Qubioran] | 167 | 92.2 | 106 | 84.9 | 99.3 |
| CAACGAGUGAUGGUCGUUGACGGCCAUCCCGAGGAUAUGGGAUUAUCCAGAAGGCGGGAUCGCCGGGAGUGAUGUUCCCUGAUCA [Same State FMN A GF 14] | 139 | 181 | 168 | 300 | 151 |
| CAAGUCGAAAAGUGAUGUUUUUCAUACGAUACCAGCAACCAGACAUGCCCUUGGCAGCGUCCAUUACGUUUCUGAGCCCGUACAG [theeternabot_exclusion_KL_Theo_A_40] | 360 | 336 | 389 | 388 | 308 |
| CACCAUGAAUUCUCUAGGAGUGAUGUUUUUCGAGGACCGGUACGGCCGCCACUCGGACGAGGACCGUGGGAGCGGCGAAGCGGCU [?oegmullin] | 99.2 | 59.1 | 767 | 169 | 104 |
| CACCCAGUCCUCGAUACCAGACUGGCACGUCAAAAGGUCCAGUGAUGUUGAGCCUAACAAGUCCCUUGGCAGCGACCAGUGUAUU [theeternabot_exclusion_KL_Theo_B_30] | 680 | 573 | 729 | 619 | 623 |
| CACUCGGUAUCAGAUACCAGACUAUCGAUACCGAGUGUAUCGGGUAGUGAUGUUACCAUAGUCCCUUGGCAGCUGAUAUUGCAUA [Theo B SS t9b] | 73.3 | 94.1 | 71.7 | 87.7 | 59.2 |
| CACUUACGUAGUGAUGUUACGAUCUCUGAUACCAGACAACUCUAAGUCCCUUGGCAGCAGUCAUUUUGCUUAUUAUUUACUCAAA [JR_ExcTheophyA_Sub017] | 647 | 597 | 730 | 663 | 456 |
| CAGCCUGGUCAGUGAUGUUGGCCGCAGGGAAAGGAUAUUGUGUUGGCAAGAAGGUUCGCUUGAUCGUUGGCCCAUGCAUGGGCCU [theeternabot_sameState_KL_FMN_A_44] | 186 | 180 | 197 | 280 | 183 |
| CAUACGCAUGGAGGAUAUGAGAUUACUCAUGUCAUUUAAUAUUCUCAGUGAUGUUGAGAUUUUGGCUCAGAAGGCCAUGUGUAUG [Ex FMN B 18] | 436 | 496 | 534 | 599 | 543 |
| CAUACGCAUGGAGGAUAUGAGAUUUCUCAUAUUAUUUAAUAUUCUCAGUGAUGUUGGGAUUUAAACUCAGAAGGCCAUGUGUAUG [Ex FMN B 7] | 259 | 159 | 159 | 234 | 169 |
| CAUAGACAAGUGAUGUUUGUCAUAACCGAAGGAGCGUCGUUGAAGACAGGUAGGUCGCGGAUUAAUUAAGAUUAUAUUCUUUUUA [JR_SSArginiA_Sub019] | 605 | 485 | 634 | 624 | 505 |
| CAUAGGAAACUAUGUUUCUCUCUUACUGAAGGAGCGCGUGAAAACGCAGGUAGGUCGCAGAAUUUGAGAGUGAUGUUCUCAUUAA [Ex Arginine A K4 14] | 119 | 211 | 175 | 201 | 127 |
